# T1: rat NogoA-623-640 (rat)
# T1 construct: Free peptide used for preincubation with 11C7; also called immunogenic peptide
# T1 peptide: SYDSIKLEPENPPPYEEA
# T2: human NiG (human, UniProt Q9NQC3 186-1004)
# T2 construct: Expressed in E. coli from pET28a-hNiG; also called hNiG; recombinant human NIG; not shown: N-terminal His- and T7-tag from pET28a
# T2 sequence: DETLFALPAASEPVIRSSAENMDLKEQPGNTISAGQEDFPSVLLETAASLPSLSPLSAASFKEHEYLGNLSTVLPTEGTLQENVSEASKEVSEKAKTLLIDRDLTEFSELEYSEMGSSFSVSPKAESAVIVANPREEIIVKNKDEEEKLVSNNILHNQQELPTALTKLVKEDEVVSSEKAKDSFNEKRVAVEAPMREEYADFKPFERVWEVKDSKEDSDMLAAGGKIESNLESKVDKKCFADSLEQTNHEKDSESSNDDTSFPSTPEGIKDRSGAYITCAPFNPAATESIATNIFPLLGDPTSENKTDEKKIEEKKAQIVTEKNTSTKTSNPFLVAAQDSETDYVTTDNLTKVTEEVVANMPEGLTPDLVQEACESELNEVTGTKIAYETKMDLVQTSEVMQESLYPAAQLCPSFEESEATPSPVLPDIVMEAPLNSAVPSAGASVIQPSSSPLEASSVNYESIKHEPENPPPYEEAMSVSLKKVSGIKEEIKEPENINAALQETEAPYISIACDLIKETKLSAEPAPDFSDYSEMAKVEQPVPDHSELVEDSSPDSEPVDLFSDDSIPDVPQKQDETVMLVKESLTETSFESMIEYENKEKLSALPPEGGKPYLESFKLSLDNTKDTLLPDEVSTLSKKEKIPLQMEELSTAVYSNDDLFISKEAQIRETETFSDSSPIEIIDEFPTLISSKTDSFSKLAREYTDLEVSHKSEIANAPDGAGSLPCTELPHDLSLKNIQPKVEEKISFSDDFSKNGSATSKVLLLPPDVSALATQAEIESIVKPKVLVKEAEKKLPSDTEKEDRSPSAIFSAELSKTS
# T3: rat NiG (rat, UniProt Q9JK11 174-979)
# T3 construct: also called recombinant rat NIG
# T3 sequence: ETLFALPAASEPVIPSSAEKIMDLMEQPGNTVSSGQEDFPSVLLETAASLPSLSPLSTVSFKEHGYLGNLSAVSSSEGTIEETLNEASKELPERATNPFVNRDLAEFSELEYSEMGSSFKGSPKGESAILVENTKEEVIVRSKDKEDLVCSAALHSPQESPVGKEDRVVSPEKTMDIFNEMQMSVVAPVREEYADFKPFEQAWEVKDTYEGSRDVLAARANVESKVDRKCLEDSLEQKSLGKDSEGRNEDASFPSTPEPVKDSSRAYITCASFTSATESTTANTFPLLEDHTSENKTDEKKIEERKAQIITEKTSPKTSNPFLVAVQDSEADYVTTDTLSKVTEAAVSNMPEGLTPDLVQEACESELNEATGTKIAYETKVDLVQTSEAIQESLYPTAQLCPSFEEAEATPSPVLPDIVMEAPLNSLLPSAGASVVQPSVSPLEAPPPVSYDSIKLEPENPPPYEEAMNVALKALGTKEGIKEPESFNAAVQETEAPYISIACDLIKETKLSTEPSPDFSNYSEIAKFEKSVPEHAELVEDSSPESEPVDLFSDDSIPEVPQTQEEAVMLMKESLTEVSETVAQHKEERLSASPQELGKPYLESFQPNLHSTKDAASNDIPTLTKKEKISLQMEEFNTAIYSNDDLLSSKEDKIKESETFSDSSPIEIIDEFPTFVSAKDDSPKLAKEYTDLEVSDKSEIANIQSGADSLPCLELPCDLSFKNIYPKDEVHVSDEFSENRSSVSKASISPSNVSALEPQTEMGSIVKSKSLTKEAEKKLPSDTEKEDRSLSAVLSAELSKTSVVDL
# T4: mouse NiG (mouse, UniProt Q99P72 188-974, limits assumed)
# T4 construct: domain: NiG-exon3; also called mNiG-exon3; mouse NiG-exon3
# T4 sequence (looked up): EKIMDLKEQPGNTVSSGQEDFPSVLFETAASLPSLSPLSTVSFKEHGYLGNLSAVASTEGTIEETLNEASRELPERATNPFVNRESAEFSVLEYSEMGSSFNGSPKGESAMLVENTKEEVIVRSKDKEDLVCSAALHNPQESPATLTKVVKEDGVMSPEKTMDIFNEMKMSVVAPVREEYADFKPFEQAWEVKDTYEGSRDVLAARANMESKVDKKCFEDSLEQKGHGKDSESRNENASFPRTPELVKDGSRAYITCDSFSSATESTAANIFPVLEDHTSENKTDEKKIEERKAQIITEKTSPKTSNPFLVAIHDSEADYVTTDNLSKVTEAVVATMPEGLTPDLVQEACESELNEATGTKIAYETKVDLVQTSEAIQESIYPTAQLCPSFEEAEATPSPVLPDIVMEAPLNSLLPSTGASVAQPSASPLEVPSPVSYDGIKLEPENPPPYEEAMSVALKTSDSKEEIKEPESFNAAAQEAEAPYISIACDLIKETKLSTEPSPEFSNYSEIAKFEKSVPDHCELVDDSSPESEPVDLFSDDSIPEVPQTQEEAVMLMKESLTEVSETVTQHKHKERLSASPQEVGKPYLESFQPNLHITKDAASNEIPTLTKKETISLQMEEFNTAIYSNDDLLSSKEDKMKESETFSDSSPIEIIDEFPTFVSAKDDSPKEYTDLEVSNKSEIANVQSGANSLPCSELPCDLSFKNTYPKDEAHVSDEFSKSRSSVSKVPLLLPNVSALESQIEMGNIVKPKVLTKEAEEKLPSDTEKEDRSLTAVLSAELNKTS
# T5: rat NiG-D6 (rat, UniProt Q9JK11 763-975)
# T5 construct: pET28 construct from bacteria
# T5 sequence: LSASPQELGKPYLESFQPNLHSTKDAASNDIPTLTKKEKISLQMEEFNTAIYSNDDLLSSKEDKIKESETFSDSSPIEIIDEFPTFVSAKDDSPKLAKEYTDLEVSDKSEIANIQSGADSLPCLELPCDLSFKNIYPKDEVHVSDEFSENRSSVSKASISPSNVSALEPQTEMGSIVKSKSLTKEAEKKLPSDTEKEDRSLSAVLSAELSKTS
# T6: Nogo-66 (rat, UniProt Q9JK11 1019-1083)
# T6 construct: also called Nogo-66 fragment
# T6 sequence: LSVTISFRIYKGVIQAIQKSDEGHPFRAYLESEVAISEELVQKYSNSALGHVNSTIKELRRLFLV
# Assays:
# rat NogoA-623-640 = target: T1, rat NogoA-623-640; experiment: peptide competition of cell surface staining of living rat oligodendrocytes
# Protocol: Immunocytochemistry: Optic nerve oligodendrocytes are prepared as described (Schwab, Caroni, 1988, Neuron). Three to five day-old cultures grown on poly-L-lysine coated coverslips are washed twice with PBS, fixed in 4% (w/v) paraformaldehyde (PFA), 5% (w/v) sucrose in PBS for 15 min at room temperature (RT) and non-specific binding is blocked with 10% (v/v) FCS. Cells were then incubated with mouse 11C7 (1:100). Secondary antibodies are goat-anti-mouse TRITC (Jackson ImmunoResearch Laboratories). For cell surface staining, two day-old rat optic nerve cultures are incubated with monoclonal antibody in medium for 25 min at RT. Secondary alkaline phosphatase conjugated antibodies (Milan Analytica, Lausanne) are used at 1:7,500 in 0.1 M maleic acid with 1% (w/v) blocking reagent (1 hr). The cultures are washed twice with maleic acid buffer, once with alkaline phosphatase buffer (0.1 M Tris-HCl pH 9.5, 0.1 M NaCl, 5 mM MgCl₂) and the staining is developed for 3 hrs at room temperature with 0.175 mg/ml BCIP (Sigma) and 0.338 mg/ml NBT (Sigma) in alkaline phosphatase buffer.
# Cell surface staining is present on all major and small processes and on the cell body. Thus, the Nogo-A specific part of the molecule recognised by mouse 11C7 mAb is exposed to the extracellular space on the plasma membrane of oligodendrocytes.
# human NiG [1] = target: T2, human NiG; experiment: SPR (BIAcore 2000), NiG amine-coupled on CM5 chip, antibody injected
# Protocol: (§1) The affinity of the mouse 11C7 mAb and of the 11C7 Fab are measured by surface plasmon resonance (SPR) using a BIAcore 2000 optical biosensor (Biacore, Uppsala, Sweden) according to the manufacture's instructions (see FIG. 2). Recombinant human, mouse, and rat NIG are covalently attached to three separate flow cells of a CM5 sensor chip using amine-coupling chemistry. Briefly; the carboxymethlyladed dextran matrix is activated by injecting 35 ul of a solution containing 0.025M NHS and 0.1M EDC. […] The deactivation of the remaining NHS-ester group is performed by injection of 35 ul of 1M ethanolamine hydrochloride (pH 8.5). The surface of the sensor chip is regenerated by injecting 5 ul 0.1M HCl. […] After each injection the sensor chip surface is regenerated with the injection of 10 ul 0.1M HCl without loss of binding activity on the surface. The kinetic constants, ka and kd and the affinity constants KA and KD are evaluated using the BIAevaluations 3.0 software supplied by the manufacturer.
# (§2) Affinity measurement in BIAcore: The kinietc and the affinity binding constants of the mouse 11C7 mAb and the 11C7 derived monovalent Fab fragment to recombinat NogoA are measured in real time using surface plasmon resonance (SPR) technology (Biacore). For this analysis recombinant human, mouse and rat NIGs are coupled on three independent sensor chip surfaces and different concentrations of the antibodies are injected. Kinetic parameters of the binding interactions are derived from the sensorgrams by non-linear curve fitting. […] The lower affinity of the Fab fragment results from a decrease of both kinetic constants, association and dissociation (ka, kd).
# rat NiG = target: T3, rat NiG; experiment: as above
# Protocol: as §1, §2
# mouse NiG = target: T4, mouse NiG; experiment: as above
# Protocol: as §1, §2
# rat NiG-D6 = target: T5, rat NiG-D6; experiment: ELISA, fragment coated on plate
# Protocol: (§3) Greiner 96 well PS plates (#655161) are coated with 0.4-2 ug/ml Nogo protein fragments in PBS (100ul/well) covered and incubated 4 hours at room temperature. Plates are flicked and refilled with 200 ul/well blocking buffer (PBS+2% BSA), covered and incubated. 1 h at RT or overnight at 4° C., then washed 4 times with water and PBS. Different concentrations of mouse 11C7 mAb or 11C7 Fab are diluted in PBS+2% BSA (100 u/well), and incubated 2 h at RT or overnight at 4° C. Wash step is repeated and Goat anti-mouse IgG conjugated with horse radish peroxidase (HRP) at a dilution of 1:5000 (ICN #55550) in PBS/0.1% BSA/0.1% Nonidet 40 (100 uVwell) is added and incubated. 2h at RT or overnight at 4° C. and wash step is repeated. HRP reaction is started by adding 100 uvwell BM blue POD (Roche #1484281) and incubafed in the dark at RT for 15 minutes. H2SO4 50 ul/well 1 M is added to stop HRP substrate reaction and the optical density is determinated using a microplate reader (Packard Spectra Count) set to 450 nm.
# Nogo-66 = target: T6, Nogo-66; experiment: ELISA, fragment coated on plate
# Protocol: as §3
# human NiG [2] = target: T2, human NiG; experiment: SPR (BIAcore 2000), NiG amine-coupled on CM5 chip, Fab injected
# Protocol: as §1, §2
Binder,binding result (rat NogoA-623-640),Ka (human NiG [1]) [M⁻¹],Kd (human NiG [1]) [nM],koff (human NiG [1]) [s⁻¹],kon (human NiG [1]) [M⁻¹ s⁻¹],Ka (rat NiG) [M⁻¹],Kd (rat NiG) [nM],koff (rat NiG) [s⁻¹],kon (rat NiG) [M⁻¹ s⁻¹],Ka (mouse NiG) [M⁻¹],Kd (mouse NiG) [nM],koff (mouse NiG) [s⁻¹],kon (mouse NiG) [M⁻¹ s⁻¹],binding result (rat NiG-D6),binding result (Nogo-66),Ka (human NiG [2]) [M⁻¹],Kd (human NiG [2]) [nM],koff (human NiG [2]) [s⁻¹],kon (human NiG [2]) [M⁻¹ s⁻¹]
"mouse 11C7 mAb (antibody, V domains shown, also called mouse 11C7-IgG1; mAb 11C7) VH: EVKLLESGGGLVQPGGSLKLSCVVSGFDFRRNWMSWVRQAPGKGLEWIGEINPDSSKINYTPSLKDKFIISRDNAKNTLYLQVSTVRSEDTALYYCVRPVWMYAMDYWGQGTSVTVSS VL: not shown",binds,9.73e+09,0.103,4.6e-05,448000,2.25e+09,0.444,0.000389,876000,5.2e+09,0.192,0.000106,552000,no binding (tested: 0.02 to 2.5 nM),no binding (tested: 0.02 to 2.5 nM),,,,
"11C7 Fab (Fab, V domains shown, also called 11C7 derived monovalent Fab fragment; Fab monovalent fragment) VH: EVKLLESGGGLVQPGGSLKLSCVVSGFDFRRNWMSWVRQAPGKGLEWIGEINPDSSKINYTPSLKDKFIISRDNAKNTLYLQVSTVRSEDTALYYCVRPVWMYAMDYWGQGTSVTVSS VL: not shown",,,,,,,,,,,,,,no binding (tested: 0.025 to 25 nM),no binding (tested: 0.025 to 25 nM),1.4e+08,7.14,0.000528,72900

# Source: US20060183678A1 (Novartis, published 2006)
